{"source": "paper PMC4344524", "about": "“Combinatorial recognition of a complex telomere repeat sequence by the Candida parapsilosis Cdc13AB heterodimer”", "key": {"[1]": {"biological_target": "CpCdc13AB-DBD complex (Candida parapsilosis) (UniProt G8B7U9+G8B5A5)", "assay": "EMSA", "conditions": "stated as full-length Kd (~10 nM) at least 100-fold lower; weak shift detected; EMSA: 50 mM Tris-HCl pH 7.5, 2 mM MgCl2, 10 mM NaCl, 1 mM spermidine, 1 mM DTT, 200 ng/ul poly(dI-dC), 5% glycerol, 25 C 60 min; crosslinking: same buffer …"}, "[2]": {"biological_target": "T1, CpCdc13AB heterodimer: His6-SUMO-Cdc13A + GST-Cdc13B-FLAG (Candida parapsilosis, UniProt G8B7U9;G8B5A5 1-456;1-475)", "T1 sequence 1": "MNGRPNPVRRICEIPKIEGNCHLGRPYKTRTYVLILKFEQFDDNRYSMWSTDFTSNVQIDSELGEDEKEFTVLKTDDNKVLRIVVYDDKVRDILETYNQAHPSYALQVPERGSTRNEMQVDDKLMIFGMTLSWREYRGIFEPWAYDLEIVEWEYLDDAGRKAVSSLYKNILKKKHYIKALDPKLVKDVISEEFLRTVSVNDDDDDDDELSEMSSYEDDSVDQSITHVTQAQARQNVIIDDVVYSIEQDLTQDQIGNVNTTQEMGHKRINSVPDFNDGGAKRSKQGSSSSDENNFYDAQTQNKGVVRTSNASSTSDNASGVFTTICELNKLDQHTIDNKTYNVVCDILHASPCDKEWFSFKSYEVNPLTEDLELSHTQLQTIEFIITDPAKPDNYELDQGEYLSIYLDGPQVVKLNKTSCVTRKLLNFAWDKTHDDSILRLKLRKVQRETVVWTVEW", "T1 sequence 2": "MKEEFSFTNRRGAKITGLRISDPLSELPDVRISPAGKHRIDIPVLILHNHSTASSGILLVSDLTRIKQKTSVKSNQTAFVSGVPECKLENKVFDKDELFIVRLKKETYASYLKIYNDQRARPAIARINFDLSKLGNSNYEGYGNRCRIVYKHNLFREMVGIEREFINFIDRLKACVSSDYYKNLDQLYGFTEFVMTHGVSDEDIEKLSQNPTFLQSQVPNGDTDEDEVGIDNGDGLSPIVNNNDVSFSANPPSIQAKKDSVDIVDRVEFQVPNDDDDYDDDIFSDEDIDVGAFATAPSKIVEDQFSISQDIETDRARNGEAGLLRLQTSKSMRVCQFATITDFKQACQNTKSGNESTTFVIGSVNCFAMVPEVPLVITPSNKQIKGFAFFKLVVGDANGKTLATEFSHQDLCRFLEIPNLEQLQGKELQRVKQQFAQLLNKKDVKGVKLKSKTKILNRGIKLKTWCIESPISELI", "assay": "competition; vs CpG2 probe; EMSA: 50 mM Tris-HCl pH 7.5, 2 mM MgCl2, 10 mM NaCl, 1 mM spermidine, 1 mM DTT, 200 ng/ul poly(dI-dC), 5% glycerol, 25 C 60 min; crosslinking: same buffer, 22 C 1 h, then UV on ice 20 min", "conditions": "protein: recombinant; tags: His6-SUMO (A); GST and FLAG (B); copies: 1;1"}, "[3]": {"biological_target": "T1, CpCdc13AB heterodimer: His6-SUMO-Cdc13A …", "assay": "UV photo-crosslinking; lower product level than IO-1 and IO-3; EMSA: 50 mM Tris-HCl pH 7.5, 2 mM MgCl2, 10 mM NaCl, 1 mM spermidine, 1 mM DTT, 200 ng/ul poly(dI-dC), 5% glycerol, 25 C 60 min; crosslinking: same buffer, 22 C 1 h, then UV on ice 20 min", "conditions": "protein: recombinant; tags: His6-SUMO (A); GST and FLAG (B); copies: 1;1; label: 32P"}, "[4]": {"biological_target": "T1, CpCdc13AB heterodimer: His6-SUMO-Cdc13A …", "assay": "competition; vs CpG2 probe; EMSA: 50 mM Tris-HCl pH 7.5, 2 mM MgCl2, 10 mM NaCl, 1 mM spermidine, 1 mM DTT, 200 ng/ul poly(dI-dC), 5% glycerol, 25 C 60 min; crosslinking: same buffer, 22 C 1 h, then UV on ice 20 min", "conditions": "protein: recombinant; tags: His6-SUMO (A); GST and FLAG (B); copies: 1;1", "remark": "listed apart in the source"}, "[5]": {"biological_target": "T1, CpCdc13AB heterodimer: His6-SUMO-Cdc13A …", "assay": "EMSA; EMSA: 50 mM Tris-HCl pH 7.5, 2 mM MgCl2, 10 mM NaCl, 1 mM spermidine, 1 mM DTT, 200 ng/ul poly(dI-dC), 5% glycerol, 25 C 60 min; crosslinking: same buffer, 22 C 1 h, then UV on ice 20 min", "conditions": "protein: recombinant; tags: His6-SUMO (A); GST and FLAG (B); copies: 1;1"}, "[6]": {"biological_target": "T1, CpCdc13AB heterodimer: His6-SUMO-Cdc13A …", "assay": "UV photo-crosslinking; mostly Cdc13B adducts; EMSA: 50 mM Tris-HCl pH 7.5, 2 mM MgCl2, 10 mM NaCl, 1 mM spermidine, 1 mM DTT, 200 ng/ul poly(dI-dC), 5% glycerol, 25 C 60 min; crosslinking: same buffer, 22 C 1 h, then UV on ice 20 min", "conditions": "protein: recombinant; tags: His6-SUMO (A); GST and FLAG (B); copies: 1;1; label: 32P"}, "[7]": {"biological_target": "T1, CpCdc13AB heterodimer: His6-SUMO-Cdc13A …", "assay": "competition; affinity unaffected; EMSA: 50 mM Tris-HCl pH 7.5, 2 mM MgCl2, 10 mM NaCl, 1 mM spermidine, 1 mM DTT, 200 ng/ul poly(dI-dC), 5% glycerol, 25 C 60 min; crosslinking: same buffer, 22 C 1 h, then UV on ice 20 min", "conditions": "protein: recombinant; tags: His6-SUMO (A); GST and FLAG (B); copies: 1;1"}, "[8]": {"biological_target": "T1, CpCdc13AB heterodimer: His6-SUMO-Cdc13A …", "assay": "EMSA; apparent Kd; EMSA: 50 mM Tris-HCl pH 7.5, 2 mM MgCl2, 10 mM NaCl, 1 mM spermidine, 1 mM DTT, 200 ng/ul poly(dI-dC), 5% glycerol, 25 C 60 min; crosslinking: same buffer, 22 C 1 h, then UV on ice 20 min", "conditions": "protein: recombinant; tags: His6-SUMO (A); GST and FLAG (B); copies: 1;1"}, "[9]": {"biological_target": "T1, CpCdc13AB heterodimer: His6-SUMO-Cdc13A …", "assay": "UV photo-crosslinking; Cdc13A adducts; EMSA: 50 mM Tris-HCl pH 7.5, 2 mM MgCl2, 10 mM NaCl, 1 mM spermidine, 1 mM DTT, 200 ng/ul poly(dI-dC), 5% glycerol, 25 C 60 min; crosslinking: same buffer, 22 C 1 h, then UV on ice 20 min", "conditions": "protein: recombinant; tags: His6-SUMO (A); GST and FLAG (B); copies: 1;1; label: 32P"}, "[10]": {"biological_target": "T1, CpCdc13AB heterodimer: His6-SUMO-Cdc13A …", "assay": "competition; inactive as competitor; EMSA: 50 mM Tris-HCl pH 7.5, 2 mM MgCl2, 10 mM NaCl, 1 mM spermidine, 1 mM DTT, 200 ng/ul poly(dI-dC), 5% glycerol, 25 C 60 min; crosslinking: same buffer, 22 C 1 h, then UV on ice 20 min", "conditions": "protein: recombinant; tags: His6-SUMO (A); GST and FLAG (B); copies: 1;1"}, "[11]": {"biological_target": "T1, CpCdc13AB heterodimer: His6-SUMO-Cdc13A …", "assay": "competition; no effect of truncation; EMSA: 50 mM Tris-HCl pH 7.5, 2 mM MgCl2, 10 mM NaCl, 1 mM spermidine, 1 mM DTT, 200 ng/ul poly(dI-dC), 5% glycerol, 25 C 60 min; crosslinking: same buffer, 22 C 1 h, then UV on ice 20 min", "conditions": "protein: recombinant; tags: His6-SUMO (A); GST and FLAG (B); copies: 1;1"}, "[12]": {"biological_target": "T1, CpCdc13AB heterodimer: His6-SUMO-Cdc13A …", "assay": "competition; no effect; EMSA: 50 mM Tris-HCl pH 7.5, 2 mM MgCl2, 10 mM NaCl, 1 mM spermidine, 1 mM DTT, 200 ng/ul poly(dI-dC), 5% glycerol, 25 C 60 min; crosslinking: same buffer, 22 C 1 h, then UV on ice 20 min", "conditions": "protein: recombinant; tags: His6-SUMO (A); GST and FLAG (B); copies: 1;1"}}, "data": [{"molecule": "ATTATACTGAGGTCCGGATGTTG [CpG1]", "values": [{"measurement": "Kd", "setting": "[1]", "result": "> 1", "unit": "µM"}]}, {"molecule": "GTGGGTGTGTGGGTGTGTGGGTGTGTGGGTGTGT (ssDNA)", "note": "[ScTG34]", "values": [{"measurement": "binding result", "setting": "[2]", "result": "no binding"}]}, {"molecule": "ATTATACTGAGGTCCGGATGTTG (ssDNA, 5-iodo-dU at T13 of CpG1)", "note": "[IO-2]", "values": [{"measurement": "binding result", "setting": "[3]", "result": "binds"}]}, {"molecule": "CTGATGTTCTTTAGGGAGGTACTGATGTTCTTTAGGGAGGTA (ssDNA)", "note": "[ClG2]", "values": [{"measurement": "binding signal", "setting": "[4]", "result": "~20 fold higher concentration for 50% inhibition"}]}, {"molecule": "ATTATACTGAGGTCCGGATGTTG (ssDNA)", "note": "[CpG1]", "values": [{"measurement": "Kd", "setting": "[5]", "result": "~0.01", "unit": "µM"}]}, {"molecule": "ATTATACTGAGGTCCGGATGTTG (ssDNA, 5-iodo-dU at T8 of CpG1)", "note": "[IO-1]", "values": [{"measurement": "binding result", "setting": "[6]", "result": "binds"}]}, {"molecule": "ATTATACTGAGGTCCGGATGTCA (ssDNA)", "note": "[CpG1-Ct4]", "values": [{"measurement": "binding result", "setting": "[7]", "result": "binds"}]}, {"molecule": "CGATTACTGAGGTCCGGATGTTG (ssDNA)", "note": "[CpG1-Ct1]", "values": [{"measurement": "binding result", "setting": "[7]", "result": "binds"}]}, {"molecule": "ATTATACTGAGGTCCGGATGTTGATTATACTGAGGTCCGGATGTTG (ssDNA)", "note": "[CpG2]", "values": [{"measurement": "Kd", "setting": "[8]", "result": "~0.00707", "unit": "µM"}]}, {"molecule": "ATTATACTGAGGTCCGGATGTTG (ssDNA, 5-iodo-dU at T19 of CpG1)", "note": "[IO-3]", "values": [{"measurement": "binding result", "setting": "[9]", "result": "binds"}]}, {"molecule": "ATTATACTGAGGTCCGGAT (ssDNA)", "note": "[CpG1-Δ4]", "values": [{"measurement": "binding result", "setting": "[10]", "result": "no binding"}]}, {"molecule": "TACTGAGGTCCGGATGTTG (ssDNA)", "note": "[CpG1-Δ1]", "values": [{"measurement": "binding result", "setting": "[11]", "result": "binds"}]}, {"molecule": "GATCATTGGTGTACGGATGTCACGATCATTGGTGTACGGATGTCAC (ssDNA)", "note": "[CtG2]", "values": [{"measurement": "binding result", "setting": "[2]", "result": "no binding"}]}, {"molecule": "CCGGATGTTGATTATACTGAGGT (ssDNA)", "note": "[CpG1b]", "values": [{"measurement": "binding result", "setting": "[2]", "result": "no binding"}]}, {"molecule": "ATTACATTGAGGTCCGGATGTTG (ssDNA)", "note": "[CpG1-Ct2]", "values": [{"measurement": "binding result", "setting": "[12]", "result": "binds"}]}]}
